Among the data in patent US20230016112A1 (IBIO, published 2023) are Kd values, retold here.

The test deals with T1, full-length CD25 (human, UniProt P01589 22-186, limits assumed).
T1 construct: The assays used soluble 'full-length CD25'; also called Hu CD25; IL-2 receptor alpha chain
T1 chain: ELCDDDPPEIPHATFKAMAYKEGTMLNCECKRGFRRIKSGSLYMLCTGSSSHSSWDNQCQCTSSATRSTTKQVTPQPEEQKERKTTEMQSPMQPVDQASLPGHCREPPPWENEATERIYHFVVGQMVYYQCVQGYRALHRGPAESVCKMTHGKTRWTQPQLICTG
The experiment in a line: Octet biolayer interferometry, human IgG1 against CD25. (Biolayer interferometry detects binding as a change in optical thickness at a sensor tip.)

B1: YU392-B11 (antibody)
scFv: PGATVKISCKVSGYTFTDYYMHWVQQAPGKGLEWMGLVDPEDGETIYAEKFQGRVTITADTSTDTAYMELSSLRSEDTAVYYCAVEGGRAPGTYYYDSSGLAYWGQGTLVTVSSQAGLTQPPSASGTPGQRVTISCSGSSSNIGSNYVYWYQQLPGTAPKLLIYSNNQRPSGVPDRFSGSKSGTSASLAISGLRSEDEADYYCATWDDSLSGVVFGGGTKLTVL
notes: Tested as full-length human IgG1
A word on the Kd: it is the free concentration of one partner at which half of the binding sites on the other are occupied at equilibrium, for simple one-to-one binding. Low readings indicate tighter binding, high ones weaker binding. As to B1, the Kd is 65.6 nM.

B2: YU392-H04 (antibody)
scFv: QVQLQESGPGLVKPSGTLSLTCAVSGGSISSSNWWSWVRQPPGKGLEWIGEIYHSGSTNYNPSLKSRVTISVDKSKNQFSLKLSSVTAADTAVYYCARVNYGDYDWYFDLWGRGTLVTVSSQPVLTQPPSASGTPGQRVTISCSGSSSNIGSNFVTWYQQLPGTAPKLLIYSNNQRPSGVSDRFSASKSGTSASLAISRLQSQDEAEYYCAAWDDSLRSYVFGSGTKVTVV
notes: as for B1
As for B2, binding was put at a Kd of 9.1 nM.

B3: YU403-G05 (antibody)
scFv: PSGDLSLTCDVSGGSISRSNWWIWVRQPPGKGLEWIGEIYHTGSTNYNPSLKRRVTISVDKSKNQFSLNLSSVTAADTAVYYCARGKGSYAFDIWGLGTMVTVSSVLTQPHSVSESPGKTVTISCTGSGGNIARNYVQWYQHRPGRAPSTVIYEDDRRPSGVPDRFSGSTDISSNSASLTISGLKTEDEADYYCQSYDGNNHMVFGGGTRVTVL
notes: as for B1
With B3, binding was put at a Kd of 31.9 nM.

B4: YU392-E05 (antibody)
scFv: QVQLQESGPGLVKPSGTLSLTCTVSGGSISSSNWWSWVRQPPGKGLEWIGEIYHSGSTNYNPSLKSRVTISVDKSKNQFSLKLSSVTAADTAVYYCARGVIAAAGTYFDYWGQGTLVTVSSQAVLTQPPSASGTPGQRVTISCSGSRPNVASNSVNWYQQFPGTAPRLLIYSDNQRPSGVPDRFSGSKSGTSASLAISGLQFEDEADYYCETWDDSLRGVVFGGGTKVTVL
notes: as for B1
In the case of B4, the Kd turned out to be 16.1 nM.

B5: YU398-A11 (antibody)
scFv: PGRSLRLSCAASGFTFSSYGMHWVRQAPGKGLEWVAVISYDGSNKYYADSVKGRFTISRDNSKNTLYLQMNSLRAEDTAVYYCAKGQGDGMDVWGQGTTVTVSSYELTQPPSASGTPGQRVTISCSGSSSNVGSRTVSWFQQLPGTAPKLLIYSNNLRPSGVPDRFSGSKSGTSASLAISGLQSEDEADYYCAAWDDSLIGHVFGTGTKVTVV
notes: as for B1
Turning to B5, the Kd stood at 12.1 nM.

B6: YU392-A09 (antibody)
scFv: PGATVKISCKVSGYTFTDYYMHWVQQAPGKGLEWMGLVDPEDGETIYAEKFQGRVTITADTSTDTAYMELSSLRSEDTAVYYCATEGRYGMDVWGQGTTVTVSSQAVLTQPPSVSGTPGQRVTISCSGNNFNIGNNLVYWYQQLPGTAPKLLIYANDERPSGVPDRFSGSKSGTSASLAISGLRSEDDADYYCATWDDSLSGVVFGGGTKLTAL
notes: as for B1
Turning to B6, the Kd is 12.4 nM.

B7: YU390-B12 (antibody)
scFv: PGRSLRLSCAASGFTFSSYGMHWVRQAPGKGLEWVAVISYDGSNKYYADSVKGRFTISRDNSKNTLYLQMNSLRAEDTAVYYCAKELLEGAFDIWGQGTMVTVSSSYVLTQPPSLSVAPGQTARITCGGDNIETKSVHWYQQRPGQAPVLVVYDDDDRPSGIPERFSGSNSGNTATLTISRVEAGDEADYYCQVWDSSSGHREVFGGGTKLTVL
notes: as for B1
B7 showed a Kd of 13.7 nM.

B8: YU400-D09 (antibody)
scFv: PGSSVKVSCKASGGTFSSYAISWVRQAPGQGLEWMGGIIPIFGTANYAQKFQGRVTITADESTSTAYMELSSLRSEDTAVYYCARDFNPFSITIFEMDVWGQGTTVTVSSQSVLTQPPSVSAAPGQKVTISCSGSSSNIGNNYVSWYQQLPGTAPKLLIYDNNKRPSGIPDRFSGSKSGTSATLGITGLQTGDEADYYCGTWDSSLSALVFGGGTKLTVL
notes: as for B1
B8 registered a dissociation constant Kd of 54.5 nM.

B9: YU401-B01 (antibody)
scFv: PGSSVKVSCKASGGTFSSYAISWVRQAPGQGLEWMGGIIPIFGTANYAQKFQGRVTITADESTSTAYMELSSLRSEDTAVYYCAREMYYYYGMDVWGQGTTVTVSSDIVMTQSPSSLSASVGDRVTITCRASQSIITYLNWYQQKPGKVPKLLIYAASSLQSGVPSRFSGSGSGTDFTLTISSLQPEDFATYYCQQSYSTPPTFGQGTKLEIK
notes: as for B1
As to B9, binding was characterised by a dissociation constant (Kd) of 70.4 nM.

B10: YU392-H02 (antibody)
scFv: QLQLQESGPGLVNLSQTLSLTCTVSGGSISSGGYYWSWIRQHPGKGLEWIGYIYYSGSTYYNPSLKSRVTISVDTSKNQFSLKLSSVTAADTAVYYCARDSSSGPYGMDVWGQGTTVTVSSQSVLTQPPSVSVAPGQTARVTCGGSNIGSQSVHWYQQKPGQAPVLVVYDDYDRPSGIPERFSGSNSGNTATLTITRVDAGDEADYYCQIWDSSSAHVVFGGGTKLTVL
notes: as for B1
On to B10, for which the Kd came out at 10.6 nM.

B11: YU392-E06 (antibody)
scFv: QLQLQESGPGLVKPSGTLSLTCAVSGGSISSSNWWSWVRQPPGKGLEWIGEIYHSGSTNYNPSLKSRVTISVDKSKNQFSLKLSSVTAADTAVYYCARERTHYYYGMDIWGQGTTVTVSSQSVLTQPPSTSGTPGQRVTISCSGSSSNIGSNTVNWYHQLPGTAPRLLIYSNNQRPSGVPDRFSGSKSGTSASLALSGLQSEDEGDYYCAAWDDSLNGYVFGTGTKVTVL
notes: as for B1
B11: the Kd came to 8.3 nM.

B12: YU389-A03 (antibody)
scFv: PSQTLSLTCTVSGGSISSGGYYWSWIRQHPGKGLEWIGYIYYSGSTYYNPSLKSRVTISVDTSKNQFSLKLSSVTAADTAVYYCARGNLWSGYYFWGQGTLVTVSSQSVLTQPPSVSAAPGQKVTISCSGSSSNIGNNFVSWYQQVPGTAPKLLTYDSTKRPAGIPDRFSGSKSGTSATLEIAGLQTGDEADYYCGSWDTNLSGYVFGTGTKVTVL
notes: as for B1
The molecule B12 yielded a Kd of 9.55 nM.

B13: YU401-G07 (antibody)
scFv: LGRSLRLSCAASGFTFSSYGMHWVRQAPGKGLEWVAVISYDGSNKYYADSVKGRFTISRDNSKNTLYLQMNSLRAEDTAVYYCAKGDVNYGMDVWGQGTTVTVSSSYVLTQPPSVSVAPGQTARISCGGSNIGSKTVNWYRKKAGQAPVLVVYDGRDRPSGIPERFSGSNSGNAATLIISRVEVGDEADYYCQVWDTSGDLHWAFGGGTKLTVL
notes: as for B1
Molecule B13 yielded an equilibrium dissociation constant (Kd) of 15.3 nM.

B14: YU400-B07 (antibody)
scFv: PGRSLRLSCAASGFTFSSYGMHWVRQAPGKGLEWVAVISYDGSNKYYADSVKGRFTISRDNSKNTLYLQMNSLRAEDTAVYYCAKGDVNYGMDVWGQGTTVTVSSSYVLTQPPSVSVAPGKTARITCGGNNIGSKSVHWYQQKPGQAPVLVVYDDTDRPSGIPERFSGSNSGNTATLTISRVEAGDEADYYCQVWDSSSDLLWVFGGGTKLAVL
notes: as for B1
B14 showed a Kd of 57.8 nM.

B15: YU392-G09 (antibody)
scFv: QVQLVQSGAEVKKPGSSVKVSCKASGGTFSSYAISWVRQAPGQGLEWMGGIIPIFGTANYAQKFQGRVTITADESTSTAYMELSSLRSEDTAVYYCARDGAGNYDILTGDRSEDYYYYYGMDVWGQGTTVTVSSSYELTQPPSASGAPGQRVSISCSGGYSNIGSNTVNWYQQLPGAAPKFLIYSDNQRPSGVPDRFSGSKSGTSASLAISGLQSEDEADYYCATWDDSLNGPVFGGGTKLTVL
notes: as for B1
Turning to B15, the affinity, expressed as Kd, was 20.2 nM.

B16: YU397-D01 (antibody)
scFv: PSGTLSLTCAVSGGSISSSNWWSWVRQPPGKGLEWIGEIYHSGSTNYNPSLKSRVTISVDKSKNQFSLKLSSVTAADTAVYYCARARGGRYFDYWGQGTLVTVSSDIVLTQSPSFLSASVGDRVTITCRASQGISTYLAWYQQKPGTAPKVLMYAASTLHSGVPSRFSGSGSGTEFTLTISSLQPEDFAIYYCQQLNGYPTTFGGGTRVEIK
notes: as for B1
In turn, B16 registered a dissociation constant Kd of 3.86 nM.

B17: YU392-G12 (antibody)
scFv: QVQLQESGSGLVKPSQTLSLTCAVSGGSISSGGYSWSWIRQPPGKGLEWIGYIYHSGSTYYNPSLKSRVTISVDRSKNQFSLKLSSVTAADTAVYYCARAGYYYGMDVWGQGTTVTVSSDIVMTQTPSSLSASVGDRVAITCQASRNIWSYVNWYQQKPGEAPRLLIYGASTLQRGVPSRFSGSGSGTGFTLTINSLQPEDFATYFCQQSHSTPITFGGGTRVDIK
notes: as for B1
In the case of B17, the affinity, expressed as Kd, was 25.7 nM.
